Assay [1] has as its target T1, Aβ42 (Homo sapiens, UniProt P05067).
T1 construct: one of the secondary products yields a 42-amino-acid-long peptide (Aβ42); purchased Eurogentec, Belgium; host or cells: chemical synthesis
The assay is described as follows: Circular dichroism of Aβ42 with cyclic peptide. Conditions: 50 μM Aβ, 33° C., 30 d. It is filed as biochemical. As to the method:
Synthetic Aβ40 and Aβ42 peptides were gently dissolved without vortexing in doubly deionized water to a final concentration of 100 μM. These solutions were then diluted by PBS addition (10 mM, pH 7.33) to achieve a final Aβ concentration of 50 μM.
Appropriate amounts of synthetic cyclic peptides were added to either 40 μM SOD1(A4V) or 50 μM Aβ solutions at the desired cyclic peptide:target protein molar ratio. SOD1(A4V) structural changes were monitored for 90 d at 25° C., under quiescent conditions. Aβ structural changes were monitored for 30 d at 33° C. under quiescent conditions. CD spectra in the range 190-260 nm were recorded on a JASCO J-715 spectropolarimeter (Jasco Co., Japan) using quartz cuvettes with 1 mm path length. Each reported spectrum is the average of three scans at a rate of 100 nm·min^−1 and a resolution of 0.5 nm.
On the technique in general: CD spectra are sensitive to the conformation of chiral molecules.

Assay [2] addresses T2, SOD1(A4V)-GFP (Homo sapiens, UniProt P00441, A5V).
T2 construct: polyHis; expressed in transfected cells; host or cells: E. coli Origami 2(DE3) (BL21(DE3) for the FACS screen)
The assay is described as follows: Fluorescence of E. coli cells co-expressing SOD1(A4V)-GFP and cyclic peptide. Type of assay: cell-based. Conditions: co-expression of cyclic peptide; compared to random cyclic peptides from initial library. From the text:
Electrocompetent E. coli BL21(DE3) cells (Novagen, USA) carrying either the expression vector pETSOD1(A4V)-GFP, which produces SOD1(A4V)-GFP under control of the strong bacteriophage T7 promoter, or pETAβ42-GFP, which produces Aβ42-GFP under control of the T7 promoter, were co-transformed with the combined pSICLOPPS-NuX1X2X3-X5 vector library. Approximately 10^8 transformants carrying both the vector library and either pETSOD1(A4V)-GFP or pETAβ42-GFP vectors were harvested, pooled together, and grown in Luria-Bertani (LB) liquid medium containing either 0.005% (pETSOD1(A4F)-GFP) or 0.002% (pETAβ42-GFP) L-arabinose—the inducer of cyclic peptide production—at 37° C. with shaking. When the optical density at 600 nm (OD600) of the bacterial culture was about 0.5, 0.01 (pETSOD1(A4F)-GFP) or 0.1 (pETAβ42-GFP) mM isopropyl-β-D-thiogalactoside (IPTG) was added to the medium to induce overexpression of the reporter. […] The isolated cells were re-grown and screened for additional rounds in an identical manner until the desired enrichment in high-fluorescence clones was achieved.
For SOD1 or SOD1-GFP production, BL21(DE3) (Novagen, USA) or Origami 2(DE3) cells (Novagen, USA) were transformed with the corresponding SOD1- or SOD1-GFP-encoding vector, either with the appropriate pSICLOPPS vector or alone. […]
Bacterial cells corresponding to 1 mL culture with OD600=1 were harvested by centrifugation and re-suspended in 100 μL phosphate-buffered saline (PBS), transferred to a 96-well FLUOTRAC 200 plate (Greiner Bio One International, Austria), and their fluorescence was measured using a TECAN Safire II-Basic plate reader (Tecan, Austria). Excitation was set at 488 nm and emission was measured at 510 nm.

For assay [3], the target named is T1, Aβ42. Put plainly: Thioflavin T dye-binding assay of Aβ42. Type of assay: biochemical. Conditions: 30-d aged CD solutions. How it is done:
For Aβ ThT staining, 100 μL of the 30-d aged 50 μM CD solutions were diluted in PBS (10 mM, pH 7.33) to form a 25 μM Aβ solution with 200 μL final volume. 2.5 μL from a stock solution of ThT (Sigma-Aldrich, USA) in PBS (10 mM, pH 7.33) was added to the prepared Aβ solutions to achieve a final ThT concentration of 5 μM. The mixture was agitated adequately by pipetting and immediately thereafter, fluorescence was monitored with excitation at 440 nm (EM slit=2.5 nm, PMT Voltage 700 V, response 0.4 s) using a HITACHI F-2500 (Japan) spectrofluorometer.

Assay [4] addresses T3, SOD1(A4V) (Homo sapiens, UniProt P00441, A5V).
T3 construct: polyHis; made in house; host or cells: E. coli Origami 2(DE3)
The assay is described as follows: Filter retardation assay of SOD1(A4V). Conditions: 25 d at 37° C. It is filed as biochemical. As to the method: SOD1 or mutants thereof were overexpressed from the appropriate pET-SOD1 or PASK-SOD1 vectors in E. coli Origami 2(DE3) cells in LB medium containing 50 μg/mL kanamycin (for pET-SOD1) or 100 μg/mL ampicillin (for pASK-SOD1), 200 μM CuCl2, and 200 μM ZnCl2 by the addition of 0.01 mM IPTG (for pET-SOD1) or 0.2 μg/mL anhydrotetracycline (aTc) (for pASK-SOD1), either at 37° C. for 2-3 h or at 18° C. for about 16 h. Origami 2(DE3) cells were utilized in order to provide an oxidizing cytoplasmic environment in order to promote correct formation of disulfide bonds, which are required for proper SOD1 folding and function. Under these conditions, bacterially produced SOD1 is produced in dimeric and enzymatically active form, while it simultaneously co-exists with misfolded, soluble and insoluble SOD1 oligomeric/aggregated species (FIG. 3C). Thus, the acquired protein is found in a state that resembles the conditions encountered in human cells under stressful or pathogenic conditions. The appearance of misfolded SOD1 oligomers/aggregates is enhanced with increasing incubation temperatures. […]

T3 sequence (P00441 whole entry A5V): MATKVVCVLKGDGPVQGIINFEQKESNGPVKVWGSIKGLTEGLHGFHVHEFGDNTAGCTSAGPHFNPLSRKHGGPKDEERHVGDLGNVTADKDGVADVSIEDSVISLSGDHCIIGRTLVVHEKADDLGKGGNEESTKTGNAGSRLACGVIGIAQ
T2 sequence (P00441 whole entry A5V): as above

Turning to cyclo-TWSVW (cyclic) [SOD1C5-4], the “effect on aggregation process of Aβ42 (CD)” value in assay [1] is “did not have any effect”. In addition, in assay [2], the “SOD1(A4V)-GFP fluorescence of E. coli cells” value is recorded as “highest levels of cellular SOD1(A4V)-GFP fluorescence”. Further, the “extent of Aβ42 amyloid fibril formation (ThT)” value in assay [3] is reported as “did not have any effect”. The “formation of large, amyloid-like SOD1(A4V) aggregates by filter retardation assay” value in assay [4] is recorded as “dramatically decreased”.
